Where two headings read alike, the source gives them in different places. Each block holds one molecule with its values, some of them ahead of it.
How the values were obtained:
FFA2R (GPR43) = molecular target: T1, FFA2R (GPR43) (Homo sapiens, UniProt O15552); test: ebBRET effector membrane translocation assay (Rap1GAP-RlucII / rGFP-CAAX), Galpha-i1 activation; format: cell-based
T1 construct: gene FFAR2; full-length WT receptor, transiently transfected in HEK293T cells together with a defined Galpha subunit, Rap1GAP-RlucII and rGFP-CAAX; plasmid from cDNA.org
T1 sequence (O15552 1-330): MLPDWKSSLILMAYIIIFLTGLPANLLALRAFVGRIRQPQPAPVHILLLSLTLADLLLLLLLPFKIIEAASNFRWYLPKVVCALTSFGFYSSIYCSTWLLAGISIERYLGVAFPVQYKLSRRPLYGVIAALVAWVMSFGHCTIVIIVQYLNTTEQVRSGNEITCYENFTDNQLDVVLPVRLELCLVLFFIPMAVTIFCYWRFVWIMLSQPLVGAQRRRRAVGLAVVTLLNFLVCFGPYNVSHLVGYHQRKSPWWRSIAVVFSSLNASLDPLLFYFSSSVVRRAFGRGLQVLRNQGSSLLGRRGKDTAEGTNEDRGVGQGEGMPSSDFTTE
Text: ebBRET effector membrane translocation assay (Rap1GAP-RlucII / rGFP-CAAX), Galpha-i1 activation on FFA2R (GPR43)

[1] = molecular target: T2, free fatty acid receptor 2 (FFA2R; GPR43), WT (human) (UniProt O15552)
T2 sequence: T1 sequence (O15552 1-330)

[2] = molecular target: T2, free fatty acid receptor 2 (FFA2R; GPR43), WT (human); remark: listed apart in the source
[3] = molecular target: T2, free fatty acid receptor 2 (FFA2R; GPR43), WT (human); remark: listed apart in the source

β-arrestin1-RlucII, sequence (P49407 whole entry): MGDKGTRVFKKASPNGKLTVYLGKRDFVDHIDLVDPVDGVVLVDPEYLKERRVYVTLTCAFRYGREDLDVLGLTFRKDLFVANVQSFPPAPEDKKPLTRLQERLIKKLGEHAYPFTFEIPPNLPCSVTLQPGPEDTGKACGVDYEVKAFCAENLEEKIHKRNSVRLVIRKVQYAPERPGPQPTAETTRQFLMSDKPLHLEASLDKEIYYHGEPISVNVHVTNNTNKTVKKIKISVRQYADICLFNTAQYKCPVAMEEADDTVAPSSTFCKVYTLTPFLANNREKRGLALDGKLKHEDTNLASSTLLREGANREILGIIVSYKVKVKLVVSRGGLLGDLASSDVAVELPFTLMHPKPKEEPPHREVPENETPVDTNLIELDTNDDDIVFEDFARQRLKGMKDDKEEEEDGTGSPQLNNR
β-arrestin2-RlucII, sequence (P32121 whole entry): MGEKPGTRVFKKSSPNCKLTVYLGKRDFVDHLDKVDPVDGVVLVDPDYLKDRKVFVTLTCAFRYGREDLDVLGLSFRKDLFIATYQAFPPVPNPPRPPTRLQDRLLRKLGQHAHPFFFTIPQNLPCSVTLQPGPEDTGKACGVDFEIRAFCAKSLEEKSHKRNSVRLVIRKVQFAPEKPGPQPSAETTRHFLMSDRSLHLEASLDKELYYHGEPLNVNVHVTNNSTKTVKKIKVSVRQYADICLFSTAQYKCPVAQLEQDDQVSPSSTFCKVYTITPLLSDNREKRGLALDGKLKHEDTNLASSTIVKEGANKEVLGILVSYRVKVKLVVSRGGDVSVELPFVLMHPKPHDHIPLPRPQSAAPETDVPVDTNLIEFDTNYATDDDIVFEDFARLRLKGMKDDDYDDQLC

EC50 (FFA2R (GPR43); read-out: AZ1729 / EC50): 41 nM
Molecule: Cc1nc(NC(=N)N)sc1-c1cccc(NC(=O)c2ccc(F)cc2)c1 [AZ1729]

EC50 (FFA2R (GPR43); read-out: Cmp58 / EC50): 2280 nM
Molecule: CC(C)(C)[C@H](C(=O)Nc1ncc(-c2ccccc2)s1)c1ccc(Cl)cc1 [Cmp58, (S)-2-(4-chlorophenyl)-3,3-dimethyl-N-(5-phenylthiazol-2-yl)butanamide]

ebBRET (EMTA) max response, p63RhoGEF-RlucII + rGFP-CAAX, HEK293T; propionate series up to 1 mM [1]: 1.82 ∆BRET^2
ebBRET (EMTA) max response, p63RhoGEF-RlucII + rGFP-CAAX, HEK293T; Cmp58 series, alone [2]: 0.33 ∆BRET^2
ebBRET (EMTA) max response, p63RhoGEF-RlucII + rGFP-CAAX, HEK293T; propionate series after AZ1729 (1 µM, 5 min), vehicle and modulator-alone signals subtracted [3]: 1.36 ∆BRET^2
ebBRET (EMTA) max response, p63RhoGEF-RlucII + rGFP-CAAX, HEK293T; propionate series after Cmp58 (1 µM, 5 min), vehicle and modulator-alone signals subtracted [3]: 1.41 ∆BRET^2
Molecule: Gα11 (from UniProt P29992 1-359) (natural protein)

ebBRET (EMTA) max response, PDZ-RhoGEF-RlucII + rGFP-CAAX, HEK293T; propionate series up to 1 mM [1]: 0.588 ∆BRET^2
Molecule: Gα13 (from UniProt Q14344 1-377) (natural protein)

ebBRET (EMTA) max response, p63RhoGEF-RlucII + rGFP-CAAX, HEK293T; propionate series up to 1 mM [1]: 0.677 ∆BRET^2
ebBRET (EMTA) max response, p63RhoGEF-RlucII + rGFP-CAAX, HEK293T; AZ1729 series, alone [2]: 0.614 ∆BRET^2
ebBRET (EMTA) max response, p63RhoGEF-RlucII + rGFP-CAAX, HEK293T; Cmp58 series, alone [2]: 0.195 ∆BRET^2
Molecule: Gα14 (from UniProt O95837 1-355) (natural protein)

ebBRET (EMTA) max response, p63RhoGEF-RlucII + rGFP-CAAX, HEK293T; propionate series up to 1 mM [1]: 0.68 ∆BRET^2
ebBRET (EMTA) max response, p63RhoGEF-RlucII + rGFP-CAAX, HEK293T; AZ1729 series, alone [2]: 0.74 ∆BRET^2
ebBRET (EMTA) max response, p63RhoGEF-RlucII + rGFP-CAAX, HEK293T; Cmp58 + AZ1729 series, no propionate [2]: 0.43 ∆BRET^2
ebBRET (EMTA) max response, p63RhoGEF-RlucII + rGFP-CAAX, HEK293T; Cmp58 series, alone [2]: 0.588 ∆BRET^2
ebBRET (EMTA) max response, p63RhoGEF-RlucII + rGFP-CAAX, HEK293T; propionate series after AZ1729 (a lower concentration than 1 µM, not given), vehicle and modulator-alone signals subtracted [3]: 0.533 ∆BRET^2
ebBRET (EMTA) max response, p63RhoGEF-RlucII + rGFP-CAAX, HEK293T; propionate series after Cmp58 (a lower concentration than 1 µM, not given), vehicle and modulator-alone signals subtracted [3]: 0.503 ∆BRET^2
Molecule: Gα15 (from UniProt P30679 1-374) (natural protein)

ebBRET (EMTA) max response, Rap1GAP-RlucII + rGFP-CAAX, HEK293T; propionate series up to 1 mM [1]: 0.755 ∆BRET^2
ebBRET (EMTA) max response, Rap1GAP-RlucII + rGFP-CAAX, HEK293T; AZ1729 series, alone [2]: 0.584 ∆BRET^2
ebBRET (EMTA) max response, Rap1GAP-RlucII + rGFP-CAAX, HEK293T; Cmp58 + AZ1729 series, no propionate [2]: 0.6 ∆BRET^2
ebBRET (EMTA) max response, Rap1GAP-RlucII + rGFP-CAAX, HEK293T; Cmp58 series, alone [2]: 0.525 ∆BRET^2
ebBRET (EMTA) max response, Rap1GAP-RlucII + rGFP-CAAX, HEK293T; propionate series after AZ1729 (1 µM, 5 min), vehicle and modulator-alone signals subtracted [3]: 0.817 ∆BRET^2
ebBRET (EMTA) max response, Rap1GAP-RlucII + rGFP-CAAX, HEK293T; propionate series after Cmp58 (1 µM, 5 min), vehicle and modulator-alone signals subtracted [3]: 0.841 ∆BRET^2
Molecule: Gαi1 (from UniProt P63096 1-354) (natural protein)

ebBRET (EMTA) max response, Rap1GAP-RlucII + rGFP-CAAX, HEK293T; propionate series up to 1 mM [1]: 0.865 ∆BRET^2
ebBRET (EMTA) max response, Rap1GAP-RlucII + rGFP-CAAX, HEK293T; AZ1729 series, alone [2]: 0.664 ∆BRET^2
ebBRET (EMTA) max response, Rap1GAP-RlucII + rGFP-CAAX, HEK293T; Cmp58 + AZ1729 series, no propionate [2]: 0.59 ∆BRET^2
ebBRET (EMTA) max response, Rap1GAP-RlucII + rGFP-CAAX, HEK293T; Cmp58 series, alone [2]: 0.567 ∆BRET^2
ebBRET (EMTA) max response, Rap1GAP-RlucII + rGFP-CAAX, HEK293T; propionate series after AZ1729 (1 µM, 5 min), vehicle and modulator-alone signals subtracted [3]: 0.481 ∆BRET^2
ebBRET (EMTA) max response, Rap1GAP-RlucII + rGFP-CAAX, HEK293T; propionate series after Cmp58 (1 µM, 5 min), vehicle and modulator-alone signals subtracted [3]: 0.74 ∆BRET^2
Molecule: Gαi2 (from UniProt P04899 1-355) (natural protein)

ebBRET (EMTA) max response, Rap1GAP-RlucII + rGFP-CAAX, HEK293T; propionate series up to 1 mM [1]: 0.859 ∆BRET^2
ebBRET (EMTA) max response, Rap1GAP-RlucII + rGFP-CAAX, HEK293T; AZ1729 series, alone [2]: 0.553 ∆BRET^2
ebBRET (EMTA) max response, Rap1GAP-RlucII + rGFP-CAAX, HEK293T; Cmp58 + AZ1729 series, no propionate [2]: 0.485 ∆BRET^2
ebBRET (EMTA) max response, Rap1GAP-RlucII + rGFP-CAAX, HEK293T; Cmp58 series, alone [2]: 0.574 ∆BRET^2
ebBRET (EMTA) max response, Rap1GAP-RlucII + rGFP-CAAX, HEK293T; propionate series after AZ1729 (1 µM, 5 min), vehicle and modulator-alone signals subtracted [3]: 0.533 ∆BRET^2
ebBRET (EMTA) max response, Rap1GAP-RlucII + rGFP-CAAX, HEK293T; propionate series after Cmp58 (1 µM, 5 min), vehicle and modulator-alone signals subtracted [3]: 0.485 ∆BRET^2
Molecule: Gαi3 (from UniProt P08754 1-354) (natural protein)

ebBRET (EMTA) max response, Rap1GAP-RlucII + rGFP-CAAX, HEK293T; propionate series up to 1 mM [1]: 0.415 ∆BRET^2
ebBRET (EMTA) max response, Rap1GAP-RlucII + rGFP-CAAX, HEK293T; AZ1729 series, alone [2]: 0.19 ∆BRET^2
ebBRET (EMTA) max response, Rap1GAP-RlucII + rGFP-CAAX, HEK293T; Cmp58 series, alone [2]: 0.237 ∆BRET^2
Molecule: GαoA (from UniProt P09471 1-354) (natural protein)

ebBRET (EMTA) max response, Rap1GAP-RlucII + rGFP-CAAX, HEK293T; propionate series up to 1 mM [1]: 1.81 ∆BRET^2
ebBRET (EMTA) max response, Rap1GAP-RlucII + rGFP-CAAX, HEK293T; AZ1729 series, alone [2]: 0.994 ∆BRET^2
ebBRET (EMTA) max response, Rap1GAP-RlucII + rGFP-CAAX, HEK293T; Cmp58 + AZ1729 series, no propionate [2]: 0.937 ∆BRET^2
ebBRET (EMTA) max response, Rap1GAP-RlucII + rGFP-CAAX, HEK293T; Cmp58 series, alone [2]: 0.742 ∆BRET^2
ebBRET (EMTA) max response, Rap1GAP-RlucII + rGFP-CAAX, HEK293T; propionate series after AZ1729 (1 µM, 5 min), vehicle and modulator-alone signals subtracted [3]: 1.62 ∆BRET^2
ebBRET (EMTA) max response, Rap1GAP-RlucII + rGFP-CAAX, HEK293T; propionate series after Cmp58 (1 µM, 5 min), vehicle and modulator-alone signals subtracted [3]: 1.48 ∆BRET^2
Molecule: GαoB (from UniProt P09471-2 1-354) (natural protein)

ebBRET (EMTA) max response, p63RhoGEF-RlucII + rGFP-CAAX, HEK293T; propionate series up to 1 mM [1]: 1.55 ∆BRET^2
ebBRET (EMTA) max response, p63RhoGEF-RlucII + rGFP-CAAX, HEK293T; AZ1729 series, alone [2]: 0.337 ∆BRET^2
ebBRET (EMTA) max response, p63RhoGEF-RlucII + rGFP-CAAX, HEK293T; Cmp58 + AZ1729 series, no propionate [2]: 0.121 ∆BRET^2
ebBRET (EMTA) max response, p63RhoGEF-RlucII + rGFP-CAAX, HEK293T; Cmp58 series, alone [2]: 0.132 ∆BRET^2
ebBRET (EMTA) max response, p63RhoGEF-RlucII + rGFP-CAAX, HEK293T; propionate series after AZ1729 (1 µM, 5 min), vehicle and modulator-alone signals subtracted [3]: 1.04 ∆BRET^2
ebBRET (EMTA) max response, p63RhoGEF-RlucII + rGFP-CAAX, HEK293T; propionate series after Cmp58 (1 µM, 5 min), vehicle and modulator-alone signals subtracted [3]: 1.01 ∆BRET^2
Molecule: Gαq (from UniProt P50148 1-359) (natural protein)

ebBRET (EMTA) max response, Rap1GAP-RlucII + rGFP-CAAX, HEK293T; propionate series up to 1 mM [1]: 0.757 ∆BRET^2
Molecule: Gαz (from UniProt P19086 1-355) (natural protein)

ebBRET max response, β-arrestin1-RlucII + rGFP-CAAX (with or without GRK2), HEK293T; propionate series up to 1 mM [1]: 0.23 ∆BRET^2
ebBRET max response, β-arrestin1-RlucII + rGFP-CAAX (with or without GRK2), HEK293T; AZ1729 series, alone [2]: 0.166 ∆BRET^2
ebBRET max response, β-arrestin1-RlucII + rGFP-CAAX (with or without GRK2), HEK293T; Cmp58 series, alone [2]: 0.0827 ∆BRET^2
Molecule: β-arrestin1-RlucII (from UniProt P49407 1-418) (natural protein)

ebBRET max response, β-arrestin2-RlucII + rGFP-CAAX (with or without GRK2), HEK293T; propionate series up to 1 mM [1]: 0.799 ∆BRET^2
ebBRET max response, β-arrestin2-RlucII + rGFP-CAAX (with or without GRK2), HEK293T; propionate series after AZ1729 (1 µM, 5 min), vehicle and modulator-alone signals subtracted [3]: 0.775 ∆BRET^2
ebBRET max response, β-arrestin2-RlucII + rGFP-CAAX (with or without GRK2), HEK293T; propionate series after Cmp58 (1 µM, 5 min), vehicle and modulator-alone signals subtracted [3]: 0.774 ∆BRET^2
Molecule: β-arrestin2-RlucII (from UniProt P32121 1-409) (natural protein)

From PMC12930632, “Free fatty acid receptor 2 allosterism is defined by cellular context” (Cell Communication and Signaling : CCS, 2026)
